The target in data set [1] is TIMP-2 Y90E-His6.
Data set [2] has as its target TIMP-2 Y90F-His6.
The target of data set [3] is WT TIMP-2-His6 tyrosine phosphorylated by c-Src.
Data set [4] has as its target wild type human TIMP-2 with C-terminal His6 tag (WT TIMP-2-His6).

TIMP-2 Y90F-His6, sequence (chain, as listed by the source Y90F): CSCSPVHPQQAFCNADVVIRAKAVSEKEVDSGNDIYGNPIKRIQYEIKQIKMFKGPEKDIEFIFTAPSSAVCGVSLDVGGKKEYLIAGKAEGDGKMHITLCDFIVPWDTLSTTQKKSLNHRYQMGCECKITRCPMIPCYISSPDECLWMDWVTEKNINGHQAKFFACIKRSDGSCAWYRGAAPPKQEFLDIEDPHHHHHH
TIMP-2 Y90E-His6, sequence (chain, as listed by the source Y90E): as the sequence (chain, as listed by the source Y90F) above, with F64E counted along it

B1: active 62 kDa MMP-2 (protein)
chain: YNFFPRKPKWDKNQITYRIIGYTPDLDPETVDDAFARAFQVWSDVTPLRFSRIHDGEADIMINFGRWEHGDGYPFDGKDGLLAHAFAPGTGVGGDSHFDDDELWTLGEGQVVRVKYGNADGEYCKFPFLFNGKEYNSCTDTGRSDGFLWCSTTYNFEKDGKYGFCPHEALFTMGGNAEGQPCKFPFRFQGTSYDSCTTEGRTDGYRWCGTTEDYDRDKKYGFCPETAMSTVGGNSEGAPCVFPFTFLGNKYESCTSAGRSDGKMWCATTANYDDDRKWGFCPDQGYSLFLVAAHEFGHAMGLEHSQDPGALMAPIYTYTKNFRLSQDDIKGIQELYGASPDIDLGTGPTPTLGPVTPEICKQDIVFDGIAQIRGEIFFFKDRFIWRTVTPRDKPMGPLLVATFWPELPEKIDAVYEAPQEEKAVFFAGNEYWIYSASTLERGYPKPLTSLGLPPDVQRVDAAFNWSKNKKTYIFAGDKFWRYNEVKKKMDPGFPKLIADAWNAIPDNLDAVVDLQGGGHSYFFKGAYYLKLENQSLKSVKFGSIKSDWLGC
On to B1, for which the “MMP-2 enzymatic activity on a fluorogenic peptide substrate” value is “phosphomimetic TIMP-2 Y90E inhibitory function correlates with significantly less MMP-2 enzymatic activity” in data set [1], “non-phosphorylatable Y90F displayed a slightly less MMP-2 inhibitory activity compared the WT TIMP-2” in data set [2], “phosphoTIMP-2 (pWT) is significantly (˜25 percent) more inhibitory than the non-phosphorylated WT TIMP-2 toward MMP-2” in data set [3] and “as expected WT TIMP-2 acts as an MMP-2 inhibitor” in data set [4].

The values above are taken from patent publication US20190322724.
